In PMC5389570 (Nucleic Acids Research, 2017):

Target: heterotrimeric human RPA (RPA70, RPA32, RPA14) (human, UniProt P27694;P15927;P35244)
Assay: SPR

Sequence of heterotrimeric human RPA (RPA70, RPA32, RPA14) (P27694 whole entry, chain 1 of 3): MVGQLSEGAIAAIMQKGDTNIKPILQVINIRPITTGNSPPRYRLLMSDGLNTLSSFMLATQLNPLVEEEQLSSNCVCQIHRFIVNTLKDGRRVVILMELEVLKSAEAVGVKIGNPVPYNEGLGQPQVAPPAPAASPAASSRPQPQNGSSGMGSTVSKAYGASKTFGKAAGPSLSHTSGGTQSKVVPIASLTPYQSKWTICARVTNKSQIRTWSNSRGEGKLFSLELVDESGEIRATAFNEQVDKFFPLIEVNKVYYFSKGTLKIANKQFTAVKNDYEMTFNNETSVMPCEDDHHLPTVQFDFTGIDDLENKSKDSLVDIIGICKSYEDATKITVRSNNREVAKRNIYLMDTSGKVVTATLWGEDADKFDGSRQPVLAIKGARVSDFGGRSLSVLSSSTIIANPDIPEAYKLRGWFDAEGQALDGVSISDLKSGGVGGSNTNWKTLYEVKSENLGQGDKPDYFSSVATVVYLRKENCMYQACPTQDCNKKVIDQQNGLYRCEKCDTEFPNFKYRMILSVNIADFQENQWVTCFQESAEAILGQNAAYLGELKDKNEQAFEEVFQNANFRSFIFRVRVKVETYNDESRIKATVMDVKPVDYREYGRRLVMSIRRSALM
Sequence of heterotrimeric human RPA (RPA70, RPA32, RPA14) (P15927 whole entry, chain 2 of 3): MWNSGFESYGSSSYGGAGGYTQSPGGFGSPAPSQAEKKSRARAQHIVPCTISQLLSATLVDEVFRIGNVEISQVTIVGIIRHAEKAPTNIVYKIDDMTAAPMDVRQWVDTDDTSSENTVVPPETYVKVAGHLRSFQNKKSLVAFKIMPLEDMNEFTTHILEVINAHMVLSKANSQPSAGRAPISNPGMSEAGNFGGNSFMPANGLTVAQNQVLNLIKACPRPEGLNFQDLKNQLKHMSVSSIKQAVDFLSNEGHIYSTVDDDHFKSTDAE
Sequence of heterotrimeric human RPA (RPA70, RPA32, RPA14) (P35244 whole entry, chain 3 of 3): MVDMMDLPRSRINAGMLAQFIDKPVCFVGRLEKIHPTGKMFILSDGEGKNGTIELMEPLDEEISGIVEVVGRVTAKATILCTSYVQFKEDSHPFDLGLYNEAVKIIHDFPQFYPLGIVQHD

B1: human Cdc45 (cell division cycle protein 45), recombinant, C-terminal His6 tag (natural protein)
chain: MFVSDFRKEFYEVVQSQRVLLFVASDVDALCACKILQALFQCDHVQYTLVPVSGWQELETAFLEHKEQFHYFILINCGANVDLLDILQPDEDTIFFVCDTHRPVNVVNVYNDTQIKLLIKQDDDLEVPAYEDIFRDEEEDEEHSGNDSDGSEPSEKRTRLEEEIVEQTMRRRQRREWEARRRDILFDYEQYEYHGTSSAMVMFELAWMLSKDLNDMLWWAIVGLTDQWVQDKITQMKYVTDVGVLQRHVSRHNHRNEDEENTLSVDCTRISFEYDLRLVLYQHWSLHDSLCNTSYTAARFKLWSVHGQKRLQEFLADMGLPLKQVKQKFQAMDISLKENLREMIEESANKFGMKDMRVQTFSIHFGFKHKFLASDVVFATMSLMESPEKDGSGTDHFIQALDSLSRSNLDKLYHGLELAKKQLRATQQTIASCLCTNLVISQGPFLYCSLMEGTPDVMLFSRPASLSLLSKHLLKSFVCSTKNRRCKLLPLVMAAPLSMEHGTVTVVGIPPETDSSDRKNFFGRAFEKAAESTSSRMLHNHFDLSVIELKAEDRSKFLDALISLLS
B1 gave a Kd of 115 nM.
